US10509035B2, “Antibodies, antibody drug conjugates and methods of use” (GAMAMABS PHARMA, priority 2015, dated 2019)

Assays:
[1] = target: T1, FCGRIIIA receptor (CD16a) (Homo sapiens, UniProt P08637); test: ELISA binding to the extracellular domain of CD16a; settings: 200 ng per well CD16a, 0.3 to 5.0 μg/ml
T1 construct: purchased R&D System
Procedure: The binding of anti-AMHR-II antibodies to the extracellular domain of CD16a was evaluated by ELISA. ELISA plates (96 wells, Maxisorp, NUnc) were coated overnight at +4° C. with 200 ng per wells of CD16a (R&D System) or an irrelevant protein (NS, non-specific binding). The experimental protocol was identical to that described for example 1. The unconjugated and ADC 3C23K antibodies were tested at concentrations from 0.3 to 5.0 μg/ml.

[2] = target: T2, AMHR-II receptor protein (AMHR-II-ECD-Fc) (Homo sapiens, UniProt Q16671); test: Binding kinetic parameters by surface plasmon resonance (Bia3000) on immobilized AMHR-II-ECD-Fc; settings: SPR, 25° C., Langmuir 1:1 fitting model
T2 construct: Fc (C); purchased R&D System
T2 sequence (Q16671 18-149 limits assumed): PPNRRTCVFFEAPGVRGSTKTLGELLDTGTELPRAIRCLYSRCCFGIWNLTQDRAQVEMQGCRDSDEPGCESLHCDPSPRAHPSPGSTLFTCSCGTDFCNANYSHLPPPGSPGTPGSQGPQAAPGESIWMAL
Procedure: Immobilization of AMHRII was performed on a Bia3000 apparatus at 25° C. in HBS-EP (HEPES 10 mM, NaCl 150 mM, EDTA 3 mM, P20 surfactant 0.005%) at […] flow rate on CM5 sensor chip using EDC/NHS (1-Ethyl-3-3-dimethylaminopropyl carbodiimidehydrochloride) activation according to the manufacturer's instructions (GEHealthcare). Briefly, carboxyl functions of CM5 sensor chip were activated with 0.4M EDC/0.1M NHS during 7 min. A solution of AMHR-II-ECD-Fc (R&D System) at 2.5 μg/ml in sodium acetate buffer was injected during 12 min. An injection of 1M ethanolamine hydrochloride was used to neutralize the activation. Recombinant AMHR-II was covalently immobilized at 1270 RU level. A control reference surface was prepared using the same chemical treatment of without injection of AMHRII.
Antibodies at different concentrations (from 0.5 nM to 133 nM) were injected during 180s on AMHRII-coated flowcell and the control flowcell. After a dissociation step of 400s in running buffer, sensor surfaces were regenerated using 5 μl of Glycine-HCl pH1.7. All the sensorgrams were corrected by subtracting the low signal from the control reference surface. Kinetic parameters were evaluated from the sensorgrams using a Langmuir 1:1 fitting model on the BiaEvaluation 4.2 software.

[3] = tested on: COV434 AMHR-II transfected cell line; test: Co-localization with the lysosomal marker LAMP-1 (immunofluorescence); type: cell-based
Procedure: Antibody mediated internalization were assessed by flow cytometry analysis and by immunofluorescence imaging. Flow cytometry experiments was done on the two expressing AMHR-II cell lines: COV434 WT with low level of expression and COV434-AMHR-II transfected cell line with high level of expression. Briefly, 5×10^5 cells were incubated with 3C23K at 10 μg/ml and incubated 30 min at 4° C. After washes, DMEM/GlutaMax (Gibco) medium, cold or pre-warmed at 37° C., was added and incubated at 4° C. or 37° C. at different time points (15 min, 30 min and 60 min). Phycoerythrin-conjugated anti-human IgG antibody (1:200, Beckman-Coulter) was added for 30 min at 4° C. FACS analysis of the resuspended cells was done on a BD Accuri™ C6 flow cytometer (BD Bioscience). As depicted in FIGS. 9A and 9B, the internalization of the 3C23K observed at 37° C. is fast whatever the level of AMHR-II expression. For immunofluorescence imaging experiments, COV434 AMHR-II transfected cell line were grown on poly-D lysine coated glass coverslips overnight at 37° C. at a density of 75000 cells/cm^2. Cells were incubated with 3C23K directly labelled with Alexa Fluor 488 for 1H30 at 4° C. to carry out surface labelling. […] Internalization was quantified by counting the number of visible vesicles in cell section at different incubation time using Image J software. […]

[4] = tested on: COV434 AMHR-II transfected cell line; test: Antibody internalization (flow cytometry and immunofluorescence imaging); type: cell-based
Procedure: Antibody mediated internalization were assessed by flow cytometry analysis and by immunofluorescence imaging. Flow cytometry experiments was done on the two expressing AMHR-II cell lines: COV434 WT with low level of expression and COV434-AMHR-II transfected cell line with high level of expression. Briefly, 5×10^5 cells were incubated with 3C23K at 10 μg/ml and incubated 30 min at 4° C. After washes, DMEM/GlutaMax (Gibco) medium, cold or pre-warmed at 37° C., was added and incubated at 4° C. or 37° C. at different time points (15 min, 30 min and 60 min). Phycoerythrin-conjugated anti-human IgG antibody (1:200, Beckman-Coulter) was added for 30 min at 4° C. FACS analysis of the resuspended cells was done on a BD Accuri™ C6 flow cytometer (BD Bioscience). As depicted in FIGS. 9A and 9B, the internalization of the 3C23K observed at 37° C. is fast whatever the level of AMHR-II expression. For immunofluorescence imaging experiments, COV434 AMHR-II transfected cell line were grown on poly-D lysine coated glass coverslips overnight at 37° C. at a density of 75000 cells/cm^2. Cells were incubated with 3C23K directly labelled with Alexa Fluor 488 for 1H30 at 4° C. to carry out surface labelling. Cell surface bound antibodies were allowed to internalize by incubating cells in prewarmed medium at 37° C. At appropriate time points, coverslips were removed and cells were washed in PBS, then fixed in formaline (4%, 30 min at room temperature) and permeabilized (Triton X-100 0.5%, 5 min at room temperature). Nuclei were stained with DAPI (4′,6-diamidino-2-phenylindole) and coverslips were mounted on microscope slides and imaged with Leica DM5000 microscope (Leica Microsystems). Internalization was quantified by counting the number of visible vesicles in cell section at different incubation time using Image J software.
The internalization capacity of the K4D24 and 6C59 variants was assayed by fluorescence cytometry analysis in the same manner as in Example 8 except for the concentrations used. Due to their strong binding, K4D24 and 6C59 were used at 0.5 μg/ml and 0.3 μg/ml respectively whereas the 3C23K was used at 10 μg/ml.

[5] = tested on: COV434 AMHR-II transfected cell line; test: Apoptosis induction, Annexin V-FITC / propidium iodide flow cytometry; type: cell-based; settings: 250 μg/ml, 48 hours
Procedure: The percentage of apoptotic was assessed using the Annexin V-Fluos Staining kit (Roche) according to the manufacturer's protocol. […] Carboplatin (300 μM) was used as positive control. After washes and centrifugation, the cell pellets were resuspended in the Annexin-V-Fluorescein and propidium iodide reagents. Following 10 minutes incubation at room temperature, samples were analyzed by flow cytometry on a BD Accuri™ C6 flow cytometer (BD Bioscience).

[6] = target: T3, AMHR2 receptor expressed at the surface membrane of the COV434 AMHR2 transfected cell line (Homo sapiens, UniProt Q16671); test: FACS binding to AMHR-II receptor at the surface of the COV434 AMHR-II transfected cell line; settings: concentrations 0.5 to 75 μg/ml, Hill slope fit (Example 4)
T3 construct: expressed in transfected cells; host or cells: COV434
T3 sequence (Q16671 18-573): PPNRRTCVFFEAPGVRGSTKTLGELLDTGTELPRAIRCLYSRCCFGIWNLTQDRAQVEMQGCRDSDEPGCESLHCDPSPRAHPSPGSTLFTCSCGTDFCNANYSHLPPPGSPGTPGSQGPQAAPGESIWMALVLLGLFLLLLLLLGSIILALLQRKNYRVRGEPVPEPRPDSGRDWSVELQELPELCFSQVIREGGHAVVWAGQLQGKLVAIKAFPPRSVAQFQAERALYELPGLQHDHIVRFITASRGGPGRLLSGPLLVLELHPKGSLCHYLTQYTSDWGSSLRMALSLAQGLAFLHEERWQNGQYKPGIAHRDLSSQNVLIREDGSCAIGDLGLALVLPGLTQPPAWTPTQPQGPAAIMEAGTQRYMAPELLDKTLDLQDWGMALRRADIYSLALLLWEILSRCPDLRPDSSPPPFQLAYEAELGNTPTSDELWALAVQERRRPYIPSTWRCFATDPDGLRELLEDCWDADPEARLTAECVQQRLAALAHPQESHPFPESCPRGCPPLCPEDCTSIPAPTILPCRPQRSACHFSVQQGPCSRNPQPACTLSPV
Procedure: The COV434 AMHR-II transfected and the COV434 WT cell lines were maintained in DMEM/GlutaMax (Gibco) supplemented with 10% FBS, penicillin 100 U/ml and Streptomycin 100 μg/ml. Geneticin at 666 μg/ml was added for the COV434 AMHR-II transfected cell line. […] After washes, Phycoerythrin-conjugated anti-human IgG antibody (1:200, Beckman-Coulter) was added for 1 hour at room temperature. FACS analysis of the resuspended cells was done on a BD Accuri™ C6 flow cytometer (BD Bioscience).
The binding capacity of the anti-AMHR-II antibody variants K4D24 and 6C59 to the AMHR-II expressing cell lines was evaluated by flow cytometry analysis in the same manner as example 4. FACS analysis with COV434-AMHR-II transfected cell line is described in FIG. 16. The Kapparent of the K4D24 and 6C59 variants were improved by a factor of 20 and 40 fold respectively as compared to the 3C23K (0.098 μg/ml and 0.05 μg/ml versus 2.2 μg/ml). The binding capacity of these variants was also assayed on the low expressing AMHR-II COV434 WT cell line. In this setting the binding was evaluated with three concentrations of variants (25, 10 and 5 μg/ml) and three concentrations of 3C23K (50, 25 and 10 μg/ml).

COV434 WT cell line = test: Antibody internalization (flow cytometry); type: cell-based; settings: 10 μg/ml, low level of AMHR-II expression
Procedure: Antibody mediated internalization were assessed by flow cytometry analysis and by immunofluorescence imaging. Flow cytometry experiments was done on the two expressing AMHR-II cell lines: COV434 WT with low level of expression and COV434-AMHR-II transfected cell line with high level of expression. Briefly, 5×10^5 cells were incubated with 3C23K at 10 μg/ml and incubated 30 min at 4° C. After washes, DMEM/GlutaMax (Gibco) medium, cold or pre-warmed at 37° C., was added and incubated at 4° C. or 37° C. at different time points (15 min, 30 min and 60 min). Phycoerythrin-conjugated anti-human IgG antibody (1:200, Beckman-Coulter) was added for 30 min at 4° C. FACS analysis of the resuspended cells was done on a BD Accuri™ C6 flow cytometer (BD Bioscience). As depicted in FIGS. 9A and 9B, the internalization of the 3C23K observed at 37° C. is fast whatever the level of AMHR-II expression. For immunofluorescence imaging experiments, COV434 AMHR-II transfected cell line were grown on poly-D lysine coated glass coverslips overnight at 37° C. at a density of 75000 cells/cm^2. Cells were incubated with 3C23K directly labelled with Alexa Fluor 488 for 1H30 at 4° C. to carry out surface labelling. […] Internalization was quantified by counting the number of visible vesicles in cell section at different incubation time using Image J software.

T1 sequence (P08637 17-208 limits assumed): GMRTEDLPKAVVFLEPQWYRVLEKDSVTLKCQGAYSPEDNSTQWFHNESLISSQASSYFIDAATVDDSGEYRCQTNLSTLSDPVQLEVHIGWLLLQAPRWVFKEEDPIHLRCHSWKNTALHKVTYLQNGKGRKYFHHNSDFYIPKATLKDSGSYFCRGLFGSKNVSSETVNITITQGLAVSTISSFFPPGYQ

B1: 3C23K (antibody, V domains shown)
VH: QVRLVQSGAEVKKPGASVKVSCKASGYTFTSYHIHWVRQAPGQRLEWMGWIYPGDDSTKYSQKFQGRVTITRDTSASTAYMELSSLRSEDTAVYYCTRGDRFAYWGQGTLVTVSS
VL: DIQMTQSPSTLSASVGDRVTITCRASSSVRYIAWYQQKPGKAPKLLTYPTSSLKSGVPSRFSGSGSGTEFTLTISSLQPDDFATYYCLQWSSYPWTFGGGTKVEIK
modifications: 3C23K/3C23; 3C23K
binding to CD16a [1]: very high affinity | KA [2]: 1.81e+10 M⁻¹ | Kd [2]: 0.05 nM | ka [2]: 125000 M⁻¹ s⁻¹ | kd [2]: 6.93e-06 s⁻¹ | detection in the lysosomal compartment (colocalization with LAMP-1) [3]: rapidly detected in the lysosomal compartment | internalization observed at 37° C. ([4]; flow cytometry, 10 μg/ml, high level of AMHR-II expression): fast | time of maximum of intracellular location ([4]; immunofluorescence imaging, 3C23K Alexa Fluor 488, 37° C.): 60 min | apoptosis induction [5]: did not induce any apoptosis | KDapparent [6]: ~3.1 µg/mL | internalization observed at 37° C. (COV434 WT cell line): fast
